Experimental data published in publication PMC3866087, “Heat Shock Transcription Factor σ^32 Co-opts the Signal Recognition Particle to Regulate Protein Homeostasis in E. coli” (PLoS Biology, 2013).

Biological target: T1, purified SecA (E. coli, UniProt P10408 1-901)
T1 construct: SecA, ATP-fueled motor protein of the Sec translocon of E. coli, purified; source: purified essentially as described [82]
Assay: far-Western, overlay or dot blot; purified FtsY, Ffh, SecA or Ffh partially digested by Glu-C (V8) resolved on 10% SDS-PAGE, transferred to nitrocellulose, re-natured, incubated with purified WTσ^32, probed with polyclonal anti-σ^32
Settings: both partners purified

T1 sequence (P10408 whole entry): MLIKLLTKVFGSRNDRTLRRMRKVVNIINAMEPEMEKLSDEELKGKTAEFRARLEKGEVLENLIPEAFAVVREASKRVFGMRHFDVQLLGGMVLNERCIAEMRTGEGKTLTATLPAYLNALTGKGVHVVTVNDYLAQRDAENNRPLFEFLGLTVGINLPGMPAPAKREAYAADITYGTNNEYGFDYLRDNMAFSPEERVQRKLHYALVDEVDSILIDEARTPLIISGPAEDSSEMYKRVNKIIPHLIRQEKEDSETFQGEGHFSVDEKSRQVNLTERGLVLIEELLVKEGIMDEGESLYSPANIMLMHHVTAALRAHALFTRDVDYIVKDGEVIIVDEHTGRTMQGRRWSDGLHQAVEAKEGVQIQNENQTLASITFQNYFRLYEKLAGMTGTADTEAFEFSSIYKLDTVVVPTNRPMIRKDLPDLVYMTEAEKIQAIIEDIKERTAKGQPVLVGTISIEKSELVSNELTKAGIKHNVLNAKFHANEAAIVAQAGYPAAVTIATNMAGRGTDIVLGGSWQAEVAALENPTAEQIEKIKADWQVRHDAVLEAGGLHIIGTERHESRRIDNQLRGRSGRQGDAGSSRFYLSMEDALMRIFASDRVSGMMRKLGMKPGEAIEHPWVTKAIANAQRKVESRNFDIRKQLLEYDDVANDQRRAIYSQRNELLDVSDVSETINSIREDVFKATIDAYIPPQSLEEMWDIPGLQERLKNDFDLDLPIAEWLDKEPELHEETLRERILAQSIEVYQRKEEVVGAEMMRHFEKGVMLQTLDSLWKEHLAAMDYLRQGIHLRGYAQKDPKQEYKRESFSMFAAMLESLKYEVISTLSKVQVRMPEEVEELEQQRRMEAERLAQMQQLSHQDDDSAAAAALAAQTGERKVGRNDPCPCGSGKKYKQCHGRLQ

- binding result: binds
B1: purified WTσ^32 (natural protein, E. coli, UniProt P0AGB3 1-284, looked up)
chain: MTDKMQSLALAPVGNLDSYIRAANAWPMLSADEERALAEKLHYHGDLEAAKTLILSHLRFVVHIARNYAGYGLPQADLIQEGNIGLMKAVRRFNPEVGVRLVSFAVHWIKAEIHEYVLRNWRIVKVATTKAQRKLFFNLRKTKQRLGWFNQDEVEMVARELGVTSKDVREMESRMAAQDMTFDLSSDDDSDSQPMAPVLYLQDKSSNFADGIEDDNWEEQAANRLTDAMQGLDERSQDIIRARWLDEDNKSTLQELADRYGVSAERVRQLEKNAMKKLRAAIEA
notes: RNA polymerase sigma factor σ^32 (RpoH) of E. coli, wild type, purified; called full-length in the discussion; The methods list 6×H-tagged, Strep-6×H-tagged and untagged σ^32; also called full-length σ^32; source: purified essentially as described [80]; chaperones removed with a wash of ATP, MgCl2 and two peptides
